From patent US20170051072A1

What was measured:
[1] = molecular target: human mesothelin with His-tag (in house) (human) (UniProt Q13421); experiment: ELISA, IgG on captured His-huMesothelin (in house)
[2] = molecular target: human mesothelin with His-tag (R&D Systems) (human) (UniProt Q13421); experiment: ELISA, IgG on captured His-huMesothelin (R&D)
Chain of human mesothelin with His-tag (R&D Systems) (human) (Q13421 other isoform, or with tags, fused parts or gaps limits assumed): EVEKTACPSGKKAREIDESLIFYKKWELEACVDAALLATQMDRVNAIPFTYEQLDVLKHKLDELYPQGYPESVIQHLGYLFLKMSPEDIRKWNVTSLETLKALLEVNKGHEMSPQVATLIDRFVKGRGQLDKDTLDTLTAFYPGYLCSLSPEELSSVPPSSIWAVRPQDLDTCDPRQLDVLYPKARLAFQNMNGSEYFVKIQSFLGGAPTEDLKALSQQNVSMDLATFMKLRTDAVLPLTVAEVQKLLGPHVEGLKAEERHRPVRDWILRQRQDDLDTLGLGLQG

Chain of human mesothelin with His-tag (in house) (human) (Q13421 other isoform, or with tags, fused parts or gaps limits assumed): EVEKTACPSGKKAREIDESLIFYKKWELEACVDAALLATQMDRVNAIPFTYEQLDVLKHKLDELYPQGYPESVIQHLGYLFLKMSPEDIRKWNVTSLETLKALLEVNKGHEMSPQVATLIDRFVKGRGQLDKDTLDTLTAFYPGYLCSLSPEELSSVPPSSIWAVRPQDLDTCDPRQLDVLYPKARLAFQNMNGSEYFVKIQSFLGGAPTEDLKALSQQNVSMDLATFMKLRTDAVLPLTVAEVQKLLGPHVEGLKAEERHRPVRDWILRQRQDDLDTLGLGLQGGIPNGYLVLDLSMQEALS

EC50 [1]: 0.0411 µg/mL
EC50 [2]: 0.0461 µg/mL
Substance: IgG VH HC_SS1/15436 + VL LC_SS1/15455 (antibody)
